Assay [1] addresses SARS-CoV-2 JN.1 RBD (SARS-CoV-2) (UniProt P0DTC2). The experiment in a line: BLI; […]; 10x kinetics buffer, […]; global fit, 1:1 binding model; […]. On the technique in general: BLI is a label-free optical method that tracks binding on a fibre tip over time.
Assay [2] deals with SARS-CoV-2 BA.2.86 S (Acro Biosystems, SPN-C524y) (SARS-CoV-2). The experiment in a line: cryo-EM structure.

One may read the Kd as a measure of binding affinity in units of concentration. A higher Kd goes with a looser complex. One may read the koff as a measure of how fast the partners let go of each other. Higher therefore signals a short-lived complex. For orientation: kon means the second-order rate constant of association. In general, stoichiometry N refers to a count of units in the complex or per binding partner.

On to “TRI2-2 homotrimeric miniprotein inhibitor (designed binder)”, for which, in assay [1], the Kd is 6.19 nM, the koff was found to be 0.00175 s⁻¹ and the kon amounted to 282000 M⁻¹ s⁻¹.
Substance “SARS-CoV-2 BA.2.86 S (Acro Biosystems, SPN-C524y) (domain or fragment)” came in with a stoichiometry N in assay [2] of 3.

Values taken from doi:10.1101/2024.08.08.606885.
